Self-cleavage data for 39 variants are collected here from the RNAGym collection of RNA variant scans (doi:10.7554/elife.90254).

To fix the notation:
B1: LINE1-full (parent)
chain: UACGUAGGUGGUUUUCCCCUGAUAGUGCUAAGGGGGCCUGGAAGUUUGGACUGGGCAGAGCUCAACACAGCGUGGCAAAGUGGCUGUGGCUAGACUGCCUCUCUGGAUUCCUCGUCACUCAGCAGGGCAUCUCUGAGAGAAAUGCC

The variants in the data set derive from B1. In words: self-cleavage, relative activity (ratio to wild type); higher = more cleavage; in vitro, sequencing; the parent is a self-cleaving ribozyme.
Regarding UACGUAGGUGGUUUUCCCCUGAUAGUGCUAAGGGGGCCUGGAAGUUUGGACUGGGCAGAGCUCAACACAGCGUGUCAAAGUGGCCGUGGCUAGACUGCCUCUCUGGAUUCCUCGUCACUCAGCAGGGCAUCUCUGAGAGAAAUGCC [G75U U85C], the self-cleavage worked out at 0.07. Next, UACGUAGGUGGUUUUCCCCUGAUAGUGCUAAGGGGGCCUGGAAGUUUGGACUGGGCAGAGCUCAACACAGCGUGGAAAAGUGGCUGUGGCUAGACUGCCUCUCUGUAUUCCUCGUCACUCAGCAGGGCAUCUCUGAGAGAAAUGCC [C76A G106U]: 1.2; UACGUAGGUGGUUUUCCCCUGAUAGUGCUAAGGGGGCCUGGAAGUUUGGACUGGGCAGAGCUCAACACAGCGUGGUAAAGUGGCUGUGGCUAGACUGCCUCUCUGGAUUCCUCGUCUCUCAGCAGGGCAUCUCUGAGAGAAAUGCC [C76U A117U]: 2.41; UACGUAGGUGGUUUUCCCCUGAUAGUGCUAAGGGGGCCUGGAAGUUUGGACUGGGCAGAGCUCAACACAGCGUGCCAAAGUGGCUGUGGCUAGACUGCCUCUCUGGACUCCUCGUCACUCAGCAGGGCAUCUCUGAGAGAAAUGCC [G75C U108C]: 0.77. Next, UACGUAGGUGGUUUUCCCCUGAUAGUGCUAAGGGGGCCUGGAAGUUUGGACUGGGCAGAGCUCAACACAGCGUGGUAAAGUGGCUGUGGCUAGACUGCCUCUCUGGGUUCCUCGUCACUCAGCAGGGCAUCUCUGAGAGAAAUGCC [C76U A107G]: 2.53. As to UACGUAGGUGGUUUUCCCCUGAUAGUGCUAAGGGGGCCUGGAAGUUUGGACUGGGCAGAGCUCAACACAGCGUGGUAAAGUGGCUGUGGCUAGACUGCCUCUCUGGAUUCCUCGUCACUCAGCAGGGCAUCUCUGAGAGAAGUGCC [C76U A142G], the self-cleavage is 2.37. Then UACGUAGGUGGUUUUCCCCUGAUAGUGCUAAGGGGGCCUGGAAGUUUGGACUGGGCAGAGCUCAACACAGCGUGGUAAAGUGGCUGUGGCUAGACUGCCUCUCUGGAUUCCUCGUCACUCAGCAGGGCAUCUCUGAGAGACAUGCC [C76U A141C], with 1.29; and UACGUAGGUGGUUUUCCCCUGAUAGUGCUAAGGGGGCCUGGAAGUUUGGACUGGGCAGAGCUCAACACAGCGUGGUAAAGUGGCUGUGGCUAGACUGCCUCUCUGGAUUCCUCGUCACUCAGCAGGGCAUCUCUGAGAGAGAUGCC [C76U A141G], with 1.18; and UACGUAGGUGGUUUUCCCCUGAUAGUGCUAAGGGGGCCUGGAAGUUUGGACUGGGCAGAGCUCAACACAGCGUGGAAGAGUGGCUGUGGCUAGACUGCCUCUCUGGAUUCCUCGUCACUCAGCAGGGCAUCUCUGAGAGAAAUGCC [C76A A78G], with 1.68.

Regarding UACGUAGGUGGUUUUCCCCUGAUAGUGCUAAGGGGGCCUGGAAGUUUGGACUGGGCAGAGCUCAACACAGCGUGGAAAAGUGGCUGUGGCUAGACUGCCUCUCUGGAUUCCUCGUCACUCAGCAGGGCAUCUCAGAGAGAAAUGCC [C76A U134A], the self-cleavage came out at 0.84. Next, UACGUAGGUGGUUUUCCCCUGAUAGUGCUAAGGGGGCCUGGAAGUUUGGACUGGGCAGAGCUCAACACAGCGUGCCAAAGUGGCUGUGGCUAGACUGCCUCUCUGGAUUCCUCGUCACUCAGCAGGGCAUCUCCGAGAGAAAUGCC [G75C U134C]: 0.58; UACGUAGGUGGUUUUCCCCUGAUAGUGCUAAGGGGGCCUGGAAGUUUGGACUGGGCAGAGCUCAACACAGCGUGGUUAAGUGGCUGUGGCUAGACUGCCUCUCUGGAUUCCUCGUCACUCAGCAGGGCAUCUCUGAGAGAAAUGCC [C76U A77U]: 2.05.

For UACGUAGGUGGUUUUCCCCUGAUAGUGCUAAGGGGGCCUGGAAGUUUGGACUGGGCAGAGCUCAACACAGCGUGACAAAGUGGCUGUGGCUAGACUGCCUCUCUGGAUUCCUCGUCACUCAGCAGGGCAUCUCAGAGAGAAAUGCC [G75A U134A], the self-cleavage was found to be 1. Consider UACGUAGGUGGUUUUCCCCUGAUAGUGCUAAGGGGGCCUGGAAGUUUGGACUGGGCAGAGCUCAACACAGCGUGGAAAAGUGGCUGGGGCUAGACUGCCUCUCUGGAUUCCUCGUCACUCAGCAGGGCAUCUCUGAGAGAAAUGCC [C76A U87G], for which the self-cleavage was determined as 0.11. Next, UACGUAGGUGGUUUUCCCCUGAUAGUGCUAAGGGGGCCUGGAAGUUUGGACUGGGCAGAGCUCAACACAGCGUGGAAAAGUGGCUGCGGCUAGACUGCCUCUCUGGAUUCCUCGUCACUCAGCAGGGCAUCUCUGAGAGAAAUGCC [C76A U87C]: 0.38.

For the variant UACGUAGGUGGUUUUCCCCUGAUAGUGCUAAGGGGGCCUGGAAGUUUGGACUGGGCAGAGCUCAACACAGCGUGUCAAAGUGGCUGUGGUUAGACUGCCUCUCUGGAUUCCUCGUCACUCAGCAGGGCAUCUCUGAGAGAAAUGCC [G75U C90U], the self-cleavage is 0.03.

As to UACGUAGGUGGUUUUCCCCUGAUAGUGCUAAGGGGGCCUGGAAGUUUGGACUGGGCAGAGCUCAACACAGCGUGUCAAAGUGGCUGUGGCUAGACUGCCUCUCUGGAUUCCUCGUCACUCAGCAGGGCAUCUCUGAGAAAAAUGCC [G75U G139A], the self-cleavage came out at 0.89. Next, UACGUAGGUGGUUUUCCCCUGAUAGUGCUAAGGGGGCCUGGAAGUUUGGACUGGGCAGAGCUCAACACAGCGUGCCAAAGUGGCUGUGGCUAGACUGCCUCUCUGGAUUCCUCGUCACUCAGCAGGGCAUCUCUGAGAGAAGUGCC [G75C A142G]: 0.85; UACGUAGGUGGUUUUCCCCUGAUAGUGCUAAGGGGGCCUGGAAGUUUGGACUGGGCAGAGCUCAACACAGCGUGUCAAAGUGGCUGUGGCUAGACUGCCUCUCUGGAUUCCUCGUCACUCAGCAGGGCAUCUCUGAGAGAAUUGCC [G75U A142U]: 0.84. Next, UACGUAGGUGGUUUUCCCCUGAUAGUGCUAAGGGGGCCUGGAAGUUUGGACUGGGCAGAGCUCAACACAGCGUGGUAAGGUGGCUGUGGCUAGACUGCCUCUCUGGAUUCCUCGUCACUCAGCAGGGCAUCUCUGAGAGAAAUGCC [C76U A79G]: 2.1; UACGUAGGUGGUUUUCCCCUGAUAGUGCUAAGGGGGCCUGGAAGUUUGGACUGGGCAGAGCUCAACACAGCGUGUCAAAGUGGCUGUGGCUAGACUGCCUCUCCGGAUUCCUCGUCACUCAGCAGGGCAUCUCUGAGAGAAAUGCC [G75U U104C]: 1.32; UACGUAGGUGGUUUUCCCCUGAUAGUGCUAAGGGGGCCUGGAAGUUUGGACUGGGCAGAGCUCAACACAGCGUGCCAAAGUGGCUGUGGCUAGACUGCCUCUCUGGAUUCCUCGUCACUCAGCAGGGCAUCUCUGAGAGAAAUGCC [G75C]: 0.6. Then UACGUAGGUGGUUUUCCCCUGAUAGUGCUAAGGGGGCCUGGAAGUUUGGACUGGGCAGAGCUCAACACAGCGUGUCAAAGUGGCUGUGGCUAGACUGCCUCUCUGGAUUCCUCGUCACUCAGCAGGGCAUCUCUGAGAGAAAUGCC [G75U], with 0.62; and UACGUAGGUGGUUUUCCCCUGAUAGUGCUAAGGGGGCCUGGAAGUUUGGACUGGGCAGAGCUCAACACAGCGUGGAAAAGUGGCUGUGGCUAGACUGCCUCUCUGGAUUCCUCGUCACUCAGCAGGGCAUCCCUGAGAGAAAUGCC [C76A U132C], with 2.08; and UACGUAGGUGGUUUUCCCCUGAUAGUGCUAAGGGGGCCUGGAAGUUUGGACUGGGCAGAGCUCAACACAGCGUGGUAAAGUGGCUGUGGCUAGCCUGCCUCUCUGGAUUCCUCGUCACUCAGCAGGGCAUCUCUGAGAGAAAUGCC [C76U A94C], with 0.11. For UACGUAGGUGGUUUUCCCCUGAUAGUGCUAAGGGGGCCUGGAAGUUUGGACUGGGCAGAGCUCAACACAGCGUGGAAAAGUGGCUGUGGCUAGACUGCCUCCCUGGAUUCCUCGUCACUCAGCAGGGCAUCUCUGAGAGAAAUGCC [C76A U102C], the self-cleavage was found to be 1.39.

As for UACGUAGGUGGUUUUCCCCUGAUAGUGCUAAGGGGGCCUGGAAGUUUGGACUGGGCAGAGCUCAACACAGCGUGGUAAAGUGGCUGUGGCUAGACUGCCUCUCUGGAUUCCUCGUCACUCAGCAGGGCAUCUCUGAGAGAAAUGCC [C76U], the self-cleavage stood at 2.18. Next, UACGUAGGUGGUUUUCCCCUGAUAGUGCUAAGGGGGCCUGGAAGUUUGGACUGGGCAGAGCUCAACACAGCGUGGAAAAGUGGCUGUGGCUAGACUGCCUCUCUGGAUUCCUCGUCACUCAGCAGGGCAUCUCUGAGAGAAAUGCC [C76A]: 1.71; UACGUAGGUGGUUUUCCCCUGAUAGUGCUAAGGGGGCCUGGAAGUUUGGACUGGGCAGAGCUCAACACAGCGUGGGAAAGUGGCUGUGGCUAGACUGCCUCUCUGGAUUCCUCGUCACUCAGCAGGGCAUCUCUGAGAGAAAUGCC [C76G]: 2.01. Then UACGUAGGUGGUUUUCCCCUGAUAGUGCUAAGGGGGCCUGGAAGUUUGGACUGGGCAGAGCUCAACACAGCGUGGAAAAGUGGCUGUGGCUAGACUGCCUCUCUGGAUUCCUCGUCACUCAGCAGGGCAUCUCUGGGAGAAAUGCC [C76A A136G], with 1.79; and UACGUAGGUGGUUUUCCCCUGAUAGUGCUAAGGGGGCCUGGAAGUUUGGACUGGGCAGAGCUCAACACAGCGUGUCAAAGCGGCUGUGGCUAGACUGCCUCUCUGGAUUCCUCGUCACUCAGCAGGGCAUCUCUGAGAGAAAUGCC [G75U U81C], with 0.83; and UACGUAGGUGGUUUUCCCCUGAUAGUGCUAAGGGGGCCUGGAAGUUUGGACUGGGCAGAGCUCAACACAGCGUGGUAAAGUGGCUGUGGCUGGACUGCCUCUCUGGAUUCCUCGUCACUCAGCAGGGCAUCUCUGAGAGAAAUGCC [C76U A92G], with 0.06. Next, UACGUAGGUGGUUUUCCCCUGAUAGUGCUAAGGGGGCCUGGAAGUUUGGACUGGGCAGAGCUCAACACAGCGUGGAAAAGUGGCUGUGGCUAGACUGCCUCUCUGGAUUCCUCGUCACUCAGCAGGGCAUCUCUGAGAGAAGUGCC [C76A A142G]: 1.87; UACGUAGGUGGUUUUCCCCUGAUAGUGCUAAGGGGGCCUGGAAGUUUGGACUGGGCAGAGCUCAACACAGCGUGGUAAAGUGGCUGUGGCUAGACUGCCUCUCUGGAUUCCUCGUCACUCAGCAGGGCGUCUCUGAGAGAAAUGCC [C76U A129G]: 2.87; UACGUAGGUGGUUUUCCCCUGAUAGUGCUAAGGGGGCCUGGAAGUUUGGACUGGGCAGAGCUCAACACAGCGUGCCGAAGUGGCUGUGGCUAGACUGCCUCUCUGGAUUCCUCGUCACUCAGCAGGGCAUCUCUGAGAGAAAUGCC [G75C A77G]: 0.8. Consider UACGUAGGUGGUUUUCCCCUGAUAGUGCUAAGGGGGCCUGGAAGUUUGGACUGGGCAGAGCUCAACACAGCGUGCCUAAGUGGCUGUGGCUAGACUGCCUCUCUGGAUUCCUCGUCACUCAGCAGGGCAUCUCUGAGAGAAAUGCC [G75C A77U], for which the self-cleavage is 0.75. Then UACGUAGGUGGUUUUCCCCUGAUAGUGCUAAGGGGGCCUGGAAGUUUGGACUGGGCAGAGCUCAACACAGCGUGGUAAAGUGGCUGUGGCUAGACUGCCUCUCUGGAUUCCUCGUCACUCAGCAGGGCAUCUCUGGGAGAAAUGCC [C76U A136G], with 1.75; and UACGUAGGUGGUUUUCCCCUGAUAGUGCUAAGGGGGCCUGGAAGUUUGGACUGGGCAGAGCUCAACACAGCGUGGAAAAGUGGCUGUGGCUAGACUGCCUCUCUGGAUUCCUCGUCACUCAGCAGGGCAUCUCUGAGAGAGAUGCC [C76A A141G], with 2.26; and UACGUAGGUGGUUUUCCCCUGAUAGUGCUAAGGGGGCCUGGAAGUUUGGACUGGGCAGAGCUCAACACAGCGUGGUAAAGUGGCUGUGGCUAGACUGUCUCUCUGGAUUCCUCGUCACUCAGCAGGGCAUCUCUGAGAGAAAUGCC [C76U C98U], with 0.61.
